Target: T1, BMC15 (uncultured bacterium (metagenome))
T1 chain: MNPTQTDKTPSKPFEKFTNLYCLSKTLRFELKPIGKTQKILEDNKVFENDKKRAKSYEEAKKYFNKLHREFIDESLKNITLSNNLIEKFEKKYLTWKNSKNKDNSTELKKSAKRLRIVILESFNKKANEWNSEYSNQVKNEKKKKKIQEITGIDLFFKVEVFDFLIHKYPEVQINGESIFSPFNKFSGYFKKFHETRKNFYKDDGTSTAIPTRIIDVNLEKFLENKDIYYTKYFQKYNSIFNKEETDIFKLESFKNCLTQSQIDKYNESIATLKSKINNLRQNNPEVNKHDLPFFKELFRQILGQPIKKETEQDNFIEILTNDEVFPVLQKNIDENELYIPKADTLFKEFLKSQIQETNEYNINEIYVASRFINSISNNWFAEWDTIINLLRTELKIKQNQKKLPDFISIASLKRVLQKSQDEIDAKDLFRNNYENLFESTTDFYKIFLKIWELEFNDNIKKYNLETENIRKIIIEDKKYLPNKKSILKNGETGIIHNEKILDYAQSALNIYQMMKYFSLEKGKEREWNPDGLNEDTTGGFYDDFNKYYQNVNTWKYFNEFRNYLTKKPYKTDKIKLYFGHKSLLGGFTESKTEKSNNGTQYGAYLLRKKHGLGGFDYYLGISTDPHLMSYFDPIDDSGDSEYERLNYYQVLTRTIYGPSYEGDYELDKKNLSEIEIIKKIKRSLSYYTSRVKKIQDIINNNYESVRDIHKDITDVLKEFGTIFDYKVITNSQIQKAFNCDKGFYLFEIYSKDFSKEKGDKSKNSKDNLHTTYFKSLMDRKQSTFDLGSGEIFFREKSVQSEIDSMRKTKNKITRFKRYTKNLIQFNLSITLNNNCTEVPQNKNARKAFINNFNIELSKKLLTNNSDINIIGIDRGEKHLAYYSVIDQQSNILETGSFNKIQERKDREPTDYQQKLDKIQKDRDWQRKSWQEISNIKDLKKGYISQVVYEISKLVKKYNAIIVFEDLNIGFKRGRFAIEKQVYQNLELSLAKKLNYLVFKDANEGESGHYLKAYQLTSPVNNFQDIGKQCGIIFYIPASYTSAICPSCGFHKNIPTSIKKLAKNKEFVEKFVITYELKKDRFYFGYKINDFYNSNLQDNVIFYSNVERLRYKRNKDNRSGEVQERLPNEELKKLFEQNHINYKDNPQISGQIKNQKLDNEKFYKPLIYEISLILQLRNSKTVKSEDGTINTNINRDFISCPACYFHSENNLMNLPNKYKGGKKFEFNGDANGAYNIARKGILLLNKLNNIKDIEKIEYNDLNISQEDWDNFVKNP
Assay: cell_activity; PAM not stated; E. coli depletion, 30 C
Outline: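 E. coli carrying arabinose-induced (0.2%) BMC nuclease, grown at 30° C., made electrocompetent and electroporated with 50-100 ng plasmid carrying gRNA against malQ. Transformants plated on selective M9-glucose agar with kanamycin/ampicillin (± nourseothricin), and growth scored after 48 h at 30° C.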

B1: malQ gRNA (BMC stem-loop + 24 nt spacer) ; malQ protospacer (ssRNA ; dsDNA)
RNA: GAUUUCUACUAUUGUAGAUGUGGCGGUACGUUGAUGCAUCGCG
DNA 1: GTGGCGGTACGTTGATGCATCGCG
DNA 2: CGCGATGCATCAACGTACCGCCAC
**Q.** How did the activity turn out when B1 was run?
**A.** > 99.9 % colony reduction

From patent US20250277199, “NOVEL CRISPR-CAS NUCLEASES FROM METAGENOMES” (Brain Biotech AG, published 2025)
